Patent US20140314774A1 (UAB RESEARCH FOUNDATION, published 2014)

B1: 1A5 antibody (antibody, V domains shown)
VH: QVQLQQSGAELARPGASVKLSCKASGYTFTDNYINWMKQRPGQGLEWIGEIYPGSGNTYYNEKFKGKATLTADKSSSTAYMQLSSLTSEESAVYFCARSPNLRLYYFDYWGQGTTLTVSS
VL: DIVMTQSPATLSVTPGDRVSLSCRASQSINDYLYWYQQKLHESPRLLIKFASHSISGIPSRFSGSGSGSDFTLSINSVEPEDVGVYYCQNGHSFPLTFGAGTKLELK
notes: Hybridoma monoclonal antibody detected with goat anti-mouse IgG; also called ligand-independent HER3 antibody
B2: 3D4 antibody (antibody, V domains shown)
VH: QVQLQQSGPELVKPGASVRISCKASGYTFTNYFLHWMKQRPGQGLEWIGWIYPGNVNTKYSEKFKGKATLTADKSSSTAYMQLSSLTSEDSAVYFCARSTYYSMDYWGQGTSVTVSS
VL: DIVLTQSPASLAVSLGQRATISCRASESVDSYGNSFMNWYQQKPGQPPKVLIYRASNLESGIPARFSGSGSRTDFTLTITPVEADDVATYYCQQSYEDPPTFGGGTKLEIK
notes: Mouse monoclonal antibody raised against human HER3 expressing SP 2/0 cells; also called ligand-dependent HER3 antibody

Legend:
[1] = biological target: T1, recombinant soluble HER3 (extracellular domain) (UniProt P21860 20-643, limits assumed); experiment: NRG1 competition ELISA on coated recombinant soluble HER3
T1 construct: extracellular domain; also called ERBB3

[2] = biological target: T2, HER3 on HER3-transfected SP 2/0 cells (human, UniProt P21860 20-1342); experiment: flow cytometry, HER3-transfected SP2/0 cells stained with 1 µg/ml antibody, PE-goat anti-mouse IgG
T2 construct: whole, on cells; The flow cytometry text says only 'HER3 transfected SP2/0 cells'; also called human HER3 expressing SP 2/0 cells
Protocol: The average OD values of triplicates are presented. […] EGFR, HER2 or HER3-transfected SP 2/0 cells were stained with 1 μg/ml of purified antibody, followed by PE-goat anti-mouse IgG.
An ELISA plate was coated with 1 μg/ml of recombinant soluble EGFR, HER2, or the extracellular domain of HER3.

T2 sequence (P21860 20-1342): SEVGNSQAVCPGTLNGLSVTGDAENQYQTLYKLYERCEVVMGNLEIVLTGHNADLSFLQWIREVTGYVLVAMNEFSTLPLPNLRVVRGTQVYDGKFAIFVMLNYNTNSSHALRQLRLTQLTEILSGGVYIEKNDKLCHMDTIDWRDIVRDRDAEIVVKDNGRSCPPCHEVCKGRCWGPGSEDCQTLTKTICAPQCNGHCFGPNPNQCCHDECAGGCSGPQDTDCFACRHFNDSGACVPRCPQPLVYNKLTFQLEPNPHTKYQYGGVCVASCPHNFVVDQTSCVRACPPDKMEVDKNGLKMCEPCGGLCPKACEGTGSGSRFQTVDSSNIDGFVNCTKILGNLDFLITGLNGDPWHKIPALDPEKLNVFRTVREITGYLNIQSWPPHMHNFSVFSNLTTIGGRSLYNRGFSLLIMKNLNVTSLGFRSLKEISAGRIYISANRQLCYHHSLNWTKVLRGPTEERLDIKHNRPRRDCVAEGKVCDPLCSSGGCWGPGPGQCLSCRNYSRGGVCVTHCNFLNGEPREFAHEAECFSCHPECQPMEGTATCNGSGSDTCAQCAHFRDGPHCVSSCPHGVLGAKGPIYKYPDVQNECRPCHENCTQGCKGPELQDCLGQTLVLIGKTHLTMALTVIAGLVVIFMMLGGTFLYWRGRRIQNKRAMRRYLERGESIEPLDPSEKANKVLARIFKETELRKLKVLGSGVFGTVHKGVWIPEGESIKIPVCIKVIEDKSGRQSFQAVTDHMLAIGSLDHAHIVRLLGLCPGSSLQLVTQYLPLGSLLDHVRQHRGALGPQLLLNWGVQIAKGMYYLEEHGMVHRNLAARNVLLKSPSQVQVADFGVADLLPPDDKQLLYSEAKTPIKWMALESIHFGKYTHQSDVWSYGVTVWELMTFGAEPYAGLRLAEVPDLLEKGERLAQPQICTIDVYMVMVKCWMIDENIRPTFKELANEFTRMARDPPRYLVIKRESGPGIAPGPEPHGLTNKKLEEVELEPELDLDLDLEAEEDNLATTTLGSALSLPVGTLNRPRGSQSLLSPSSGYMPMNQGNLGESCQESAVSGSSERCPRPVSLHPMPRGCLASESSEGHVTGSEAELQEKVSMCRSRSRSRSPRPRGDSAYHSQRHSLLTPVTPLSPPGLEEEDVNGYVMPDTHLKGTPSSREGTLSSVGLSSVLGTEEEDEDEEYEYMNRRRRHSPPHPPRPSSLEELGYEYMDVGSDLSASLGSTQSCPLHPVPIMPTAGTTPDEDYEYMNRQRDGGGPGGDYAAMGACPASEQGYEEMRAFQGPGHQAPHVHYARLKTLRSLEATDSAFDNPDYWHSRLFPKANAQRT
T1 sequence (P21860 20-643 limits assumed): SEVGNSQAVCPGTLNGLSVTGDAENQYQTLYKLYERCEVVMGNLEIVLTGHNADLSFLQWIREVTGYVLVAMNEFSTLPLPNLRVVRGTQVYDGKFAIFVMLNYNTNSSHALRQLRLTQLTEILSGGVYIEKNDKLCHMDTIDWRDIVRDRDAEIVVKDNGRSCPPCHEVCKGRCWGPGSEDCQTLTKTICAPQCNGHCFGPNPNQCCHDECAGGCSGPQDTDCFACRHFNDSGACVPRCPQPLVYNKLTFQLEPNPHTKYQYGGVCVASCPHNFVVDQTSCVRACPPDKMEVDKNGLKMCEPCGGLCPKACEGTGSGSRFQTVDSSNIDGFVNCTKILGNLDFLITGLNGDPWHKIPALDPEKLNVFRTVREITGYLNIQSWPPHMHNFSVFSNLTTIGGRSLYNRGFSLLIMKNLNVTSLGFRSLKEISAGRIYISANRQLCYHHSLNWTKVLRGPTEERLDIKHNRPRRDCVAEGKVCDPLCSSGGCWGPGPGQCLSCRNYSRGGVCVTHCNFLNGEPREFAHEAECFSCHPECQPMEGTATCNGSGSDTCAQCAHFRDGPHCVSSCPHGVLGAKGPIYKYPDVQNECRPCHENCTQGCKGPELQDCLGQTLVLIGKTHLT

| Binder | binding result [1] | binding result [2] |
| --- | --- | --- |
| B1 | binds | binds |
| B2 | binds | binds |
